Reference: patent publication US20110229472A1 (Amgen, published 2011)
Ends that are not written are not given here.

T1: Recombinant human MPL (human, UniProt P40238 26-491, limits assumed)
T1 construct: also called hu-mpl; hu-MPL
T1 sequence (looked up): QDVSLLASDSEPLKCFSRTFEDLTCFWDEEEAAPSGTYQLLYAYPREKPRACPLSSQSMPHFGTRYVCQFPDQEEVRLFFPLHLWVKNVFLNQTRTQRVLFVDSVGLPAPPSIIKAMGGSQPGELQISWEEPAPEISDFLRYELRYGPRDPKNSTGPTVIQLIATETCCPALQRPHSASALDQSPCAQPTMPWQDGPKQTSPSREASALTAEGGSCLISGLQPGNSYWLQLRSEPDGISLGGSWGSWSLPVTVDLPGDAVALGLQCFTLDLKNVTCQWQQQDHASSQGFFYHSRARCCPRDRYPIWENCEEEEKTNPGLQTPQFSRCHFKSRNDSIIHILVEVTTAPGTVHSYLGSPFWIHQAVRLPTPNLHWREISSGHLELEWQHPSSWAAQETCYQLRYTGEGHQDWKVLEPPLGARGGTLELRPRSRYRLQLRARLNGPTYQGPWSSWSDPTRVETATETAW

B1: TMP2 (22-residue capped peptide) (peptide)
peptide: QGGAREGPTLRQWLEWVRVGHS
notes: two-residue caps at each end; also called TMP02
B2: TMP3 (22-residue capped peptide) (peptide)
peptide: QGRDLDGPTLRQWLPLPSVQHS
notes: two-residue caps at each end; also called TMP03
B3: TMP4 (22-residue capped peptide) (peptide)
peptide: QGALRDGPTLKQWLEYRRQAHS
notes: two-residue caps at each end; also called TMP04

Molecular target: T1, Recombinant human MPL
Test: phage ELISA titration: phagemid particles displaying the peptide, 5-fold dilution series (cfu/ul), on plate-coated recombinant human MPL, HRP-anti-M13 detection, chemiluminescent readout (Example 1, sections 4B and 5)

Question: With QGWCKEGPTLREWLRWGFLCHS (not fully specified; cysteine pairing not given here, two-residue caps at each end; Two Cys) [TMP21 (22-residue capped peptide)] as the binder, how does the “EC50 (read off the curve)” value read?
Answer: Its value is about 800000 cfu/ul.

Question: How did the “EC50 (read off the curve)” value turn out when QGCSSGGPTLREWLQCRRMQHS (not fully specified; cysteine pairing not given here, two-residue caps at each end; Two Cys) [TMP22 (22-residue capped peptide)] was run?
Answer: The value was about 200000 cfu/ul.

Question: QGCSWGGPTLKQWLQCVRAKHS (not fully specified; cysteine pairing not given here, two-residue caps at each end; Two Cys) [TMP23 (22-residue capped peptide)] was tested. Which “EC50 (read off the curve)” value did it give?
Answer: The value was about 100000 cfu/ul.

Question: For B1, which “EC50 (read off the curve)” value is on record?
Answer: Its value is about 400000 cfu/ul.

Question: Which “EC50 (read off the curve)” value does the source give for B2 here?
Answer: The value was about 200000 cfu/ul.

Question: How did the “EC50 (read off the curve)” value turn out when B3 was run?
Answer: The value was about 100000 cfu/ul.
